Values belong to the molecule of their own block, whether it stands above or below them. Where no end group is shown, it is not given here. [ ]: non-standard residue; d: D form. pT = C[C@@H](OP(=O)(O)O)[C@H](N)C(=O)O
How the values were obtained:
[1] = target: fluorescein-labeled SRC-1 cofactor peptide (LXXLL motif of SRC-1/NCoA-1); experiment: fluorescence polarisation; fluorescence anisotropy; ERα or complex titrated (2-fold series from 40 μM ERα) to 20 nM fluorescein-labeled SRC1 peptide; DMSO control; 20 mM HEPES pH 7.5, 150 mM NaCl, 10 mM MgCl2, 0.1% Tween20, 0.1% BSA; room temperature; apparent KD (4PL fit)
[2] = target: fluorescein-labeled SRC-1 cofactor peptide (LXXLL motif of SRC-1/NCoA-1); experiment: fluorescence polarisation; as a10 but in the presence of 100 μM E2; apparent KD
[3] = target: T1, 14-3-3ζ-strep (human, UniProt P63104 1-245); experiment: AUC; sedimentation velocity, 20 °C, 20 mM HEPES pH 7.5, 150 mM NaCl, 10 mM MgCl2, 0.5 mM TCEP; 10 μM single proteins, 10 or 30 μM complex; complex also with added 14-3-3ζ (up to six equivalents) or 20 μM E2 or 4-OHT; KD estimated from peak areas (KD = [A][B]/[AB]), dimer to dimer
T1 chain: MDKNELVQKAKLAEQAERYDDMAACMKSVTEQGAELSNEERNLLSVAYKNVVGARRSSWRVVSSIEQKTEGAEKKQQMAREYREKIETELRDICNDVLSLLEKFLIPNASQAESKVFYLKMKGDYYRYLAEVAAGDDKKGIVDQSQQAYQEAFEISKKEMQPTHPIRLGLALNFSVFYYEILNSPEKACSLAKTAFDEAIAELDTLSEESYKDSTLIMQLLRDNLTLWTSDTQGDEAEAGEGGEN

[4] = target: ERα LBD-F domain, PKA-responsive (F591R/P592R), phosphorylated at T594, as in the co-purified ERα/14-3-3ζ complex after SUMO cleavage (human (from the printed UniProt entry)) (UniProt P03372); experiment: as above
[5] = target: T1, 14-3-3ζ-strep; experiment: quantitative LC-QToF-MS of the purified complex; concentrations of 14-3-3ζ and ERα in dilutions of the purified complex read from calibration series of 14-3-3ζ-strep and ERα-pT594-strep
[6] = target: T2, ERα(PKA)-strep phosphopeptide (fluorescein-labeled, pT594, with C-terminal strep-tag) (human (from the printed UniProt entry)); experiment: fluorescence polarisation; fluorescence anisotropy; 14-3-3ζ titrated (2-fold series from 300 μM) to 2 nM fluorescein-labeled ERα peptide; 20 mM HEPES pH 7.5, 150 mM NaCl, 10 mM MgCl2, 0.1% Tween20, 0.1% BSA; room temperature; apparent
[7] = target: ERα(PKA) phosphopeptide (fluorescein-labeled C-terminal peptide mimic with F591R/P592R, pT594) (human (from the printed UniProt entry)); experiment: fluorescence polarisation; as a13 in the presence of a 2-fold dilution series of 3′de-Ac FC-A (0.015–250 μM); cooperativity analysis of the ternary 14-3-3/peptide/FC-A complex
[8] = target: T2, ERα(PKA)-strep phosphopeptide (fluorescein-labeled, pT594, with C-terminal strep-tag) (human); experiment: as above
[9] = target: T3, 14-3-3ζ-strep (human), P63104; experiment: SEC; analytical SEC, Superdex200 increase 3.2/300, 20 mM Tris pH 7.5, 150 mM NaCl, 10 mM MgCl2, 0.5 mM TCEP; 10 μM 14-3-3ζ, 10 μM ERα-strep, 20 μM complex; BSA as size reference; conditions: remark: other sources report otherwise
T3 chain: T1 chain

[10] = target: T3, 14-3-3ζ-strep (human), P63104; experiment: AUC; sedimentation velocity, 20 °C, 20 mM HEPES pH 7.5, 150 mM NaCl, 10 mM MgCl2, 0.5 mM TCEP; 10 μM single proteins, 10 or 30 μM complex; complex also with added 14-3-3ζ (up to six equivalents) or 20 μM E2 or 4-OHT; KD estimated from peak areas (KD = [A][B]/[AB]), dimer to dimer; conditions: remark: other sources report otherwise
[11] = target: the molecule itself; experiment: SEC; analytical SEC, Superdex200 increase 3.2/300, 20 mM Tris pH 7.5, 150 mM NaCl, 10 mM MgCl2, 0.5 mM TCEP; 10 μM 14-3-3ζ, 10 μM ERα-strep, 20 μM complex; BSA as size reference
[12] = target: T1, 14-3-3ζ-strep; experiment: FP
[13] = target: T1, 14-3-3ζ-strep; experiment: FP

Kd [1]: 9600 nM | Kd [2]: 600 nM
Molecule: ERα/14-3-3ζ protein complex (tetramer of an ERα homodimer and a 14-3-3ζ homodimer) (from UniProt P03372 302-595; P63104 1-245)

Kd [12]: 14000 nM
Molecule: AEGRRA[pT]VPWSHPQFEK (also: fluorescein label, position not given here) [ERα(PKA)-strep phosphopeptide (fluorescein-labeled, pT594, with C-terminal strep-tag)]

Kd [13]: 300 nM
Molecule: AEGRRA[pT]V (also: fluorescein label, position not given here) [ERα(PKA) phosphopeptide (fluorescein-labeled C-terminal peptide mimic with F591R/P592R, pT594)]

Kd [13]: 2200 nM
Molecule: AEGFPA[pT]V (also: fluorescein label, position not given here) [WT ERα phosphopeptide (fluorescein-labeled C-terminal peptide mimic, pT594)]

More lines, now with the values behind:

Molecule: ERα LBD-F domain, PKA-responsive (F591R/P592R), phosphorylated at T594, as in the co-purified ERα/14-3-3ζ complex after SUMO cleavage (from UniProt P03372 302-595) (domain or fragment)
Kd [3]: 32 nM | stoichiometry N (ERα:14-3-3ζ (2:2)) [3]: 1 | stoichiometry N [4]: 2 | stoichiometry N [5]: 1 ERα:14-3-3ζ

Molecule: 14-3-3ζ-strep (from UniProt P63104 1-245) (natural protein)
fold reduction in binding affinity against the ERα peptide without strep-tag [6]: 50 fold | cooperativity factor (α) of FC-A stabilisation [7]: 366 | cooperativity factor (α) of FC-A stabilisation [8]: 15

B1: 14-3-3ζ-strep, P63104 1-245 (natural protein)
chain: T1 chain
stoichiometry N [9]: 2 | stoichiometry N [10]: 2

B2: ERαLBD-F-strep (PKA-responsive, non-phosphorylated) (domain or fragment, human (from the printed UniProt entry), UniProt P03372 302-595, looked up)
chain: KKNALALSLTADQMVSALLDAEPPILYSEYDPTRPFSEASMMGLLTNLADRELVHMINWAKRVPGFVDLTLHDQVHLLECAWLEILMIGLVWRSMEHPGKLLFAPNLLLDRNQGKCVEGMVEIFDMLLATSSRFRMMNLQGEEFVCLKSIILLNSGVYTFLSSTLKSLEEKDHIHRVLDKITDTLIHLMAKAGLTLQQQHQRLAQLLLILSHIRHMSNKGMEHLYSMKCKNVVPLYDLLLEMLDAHRLHAPTSRGGASVEETDQSHLATAGSTSSHSLQKYYITGEAEGRRATV
notes: also called ERα-strep; ERα(PKA)-strep; source: E. coli NiCo21 (DE3), purified (Ni-NTA, SUMO cleavage, Strep-Tactin, SEC); not shown: His tag, N-terminal, cleaved; SUMO, N-terminal, cleaved; strep-tag, C-terminal, kept
stoichiometry N [11]: 2
